According to paper PMC10762164, “Lipid nanodisc scaffold and size alter the structure of a pentameric ligand-gated ion channel” (Nature Communications, 2024):

Tests used:
[1] = molecular target: the molecule itself; assay: cryo-EM structure; single particle cryo-EM of ELIC or ELIC5 in SMA, saposin, spMSP1D1 or spNW15 nanodiscs with 2:1:1 POPC:POPE:POPG; 10 mM HEPES pH 7.5, 100 mM NaCl; with 50 mM propylamine or apo; C5 symmetry in 3D classification and refinement
cryo-EM structure = molecular target: the molecule itself; assay: cryo-EM structure

Protein	binding result [1]	binding result (cryo-EM structure)
Erwinia ligand-gated ion channel (ELIC), wild type (natural protein, UniProt P0C7B7 1-321, looked up, Erwinia ligand-gated ion channel (ELIC), a pentameric ligand-gated ion channel, from plasmid pET-26-MBP-ELIC; Homopentamer; also called WT ELIC) APADNAADARPVDVSVSIFINKIYGVNTLEQTYKVDGYIVAQWTGKPRKTPGDKPLIVENTQIERWINNGLWVPALEFINVVGSPDTGNKRLMLFPDGRVIYNARFLGSFSNDMDFRLFPFDRQQFVLELEPFSYNNQQLRFSDIQVYTENIDNEEIDEWWIRKASTHISDIRYDHLSSVQPNQNEFSRITVRIDAVRNPSYYLWSFILPLGLIIAASWSVFWLESFSERLQTSFTLMLTVVAYAFYTSNILPRLPYTTVIDQMIIAGYGSIFAAILLIIFAHHRQAMGVEDDLLIQRCRLAFPLGFLAIGCVLVIRGITL	binds	
ELIC5 (P254G/C300S/V261Y/G319F/I320F), non-desensitizing mutant of ELIC (natural protein) APADNAADARPVDVSVSIFINKIYGVNTLEQTYKVDGYIVAQWTGKPRKTPGDKPLIVENTQIERWINNGLWVPALEFINVVGSPDTGNKRLMLFPDGRVIYNARFLGSFSNDMDFRLFPFDRQQFVLELEPFSYNNQQLRFSDIQVYTENIDNEEIDEWWIRKASTHISDIRYDHLSSVQPNQNEFSRITVRIDAVRNPSYYLWSFILPLGLIIAASWSVFWLESFSERLQTSFTLMLTVVAYAFYTSNILGRLPYTTYIDQMIIAGYGSIFAAILLIIFAHHRQAMGVEDDLLIQRSRLAFPLGFLAIGCVLVIRFFTL		binds
